Measured values from US20240376221A1.

Columns and labels:
[1] = molecular target: recombinant human OX40 (Acro Biosystems, cat. no. OXO-H5224) (human) (UniProt P43489); assay: BLI cross-block; competitor (immobilized 1st Ab): IgG1-CD134-012
[2] = molecular target: recombinant human OX40 (Acro Biosystems, cat. no. OXO-H5224) (human) (UniProt P43489); assay: BLI cross-block; competitor (immobilized 1st Ab): IgG1-CD134-MEDI0562
[3] = molecular target: human OX40, cell surface-expressed (human) (UniProt P43489); assay: flow cytometry, activated CD4+ T cells, donor 3
human OX40, cell surface-expressed (human), sequence (P43489 29-277): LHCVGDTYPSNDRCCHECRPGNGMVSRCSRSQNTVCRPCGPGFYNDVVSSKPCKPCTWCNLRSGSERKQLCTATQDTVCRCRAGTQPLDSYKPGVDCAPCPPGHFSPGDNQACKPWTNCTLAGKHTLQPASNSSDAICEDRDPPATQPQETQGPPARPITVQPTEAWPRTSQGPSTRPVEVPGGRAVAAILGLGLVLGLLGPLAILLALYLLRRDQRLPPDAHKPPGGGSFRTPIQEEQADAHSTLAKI

[4] = molecular target: recombinant human OX40 (Acro Biosystems, cat. no. OXO-H5224) (human) (UniProt P43489); assay: BLI cross-block; competitor (immobilized 1st Ab): IgG1-CD134-SF2
[5] = molecular target: human OX40 with mouse CRD1 (human with mouse CRD1) (UniProt P43489); assay: flow cytometry, ExpiCHO-S cells with human OX40 carrying mouse CRD1
human OX40 with mouse CRD1 (human with mouse CRD1), sequence (P43489 other isoform, or with tags, fused parts or gaps limits assumed): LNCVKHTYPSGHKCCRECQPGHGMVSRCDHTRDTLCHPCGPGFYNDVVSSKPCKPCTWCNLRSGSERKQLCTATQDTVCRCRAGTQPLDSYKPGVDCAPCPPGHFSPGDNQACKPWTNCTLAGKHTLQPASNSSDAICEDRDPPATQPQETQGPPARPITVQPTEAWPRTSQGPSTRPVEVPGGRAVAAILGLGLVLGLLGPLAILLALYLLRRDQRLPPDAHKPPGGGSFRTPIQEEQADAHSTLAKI

[6] = molecular target: human OX40, cell surface-expressed (human) (UniProt P43489); assay: flow cytometry, HEK293F cells with human OX40
[7] = molecular target: recombinant human OX40 (Acro Biosystems, cat. no. OXO-H5224) (human) (UniProt P43489); assay: BLI cross-block; competitor (immobilized 1st Ab): IgG1-CD134-003
[8] = molecular target: cynomolgus monkey OX40, cell surface-expressed (cynomolgus monkey); assay: flow cytometry, HEK293F cells with cynomolgus monkey OX40
cynomolgus monkey OX40, cell surface-expressed (cynomolgus monkey), sequence (P43489 other isoform, or with tags, fused parts or gaps limits assumed): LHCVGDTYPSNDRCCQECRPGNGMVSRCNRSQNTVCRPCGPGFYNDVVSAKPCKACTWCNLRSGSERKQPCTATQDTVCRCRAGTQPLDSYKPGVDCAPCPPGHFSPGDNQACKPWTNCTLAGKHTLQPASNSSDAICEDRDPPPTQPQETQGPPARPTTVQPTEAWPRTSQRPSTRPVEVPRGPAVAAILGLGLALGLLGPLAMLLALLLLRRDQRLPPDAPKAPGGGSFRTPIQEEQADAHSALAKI

[9] = molecular target: recombinant human OX40 (Acro Biosystems, cat. no. OXO-H5224) (human) (UniProt P43489); assay: BLI cross-block; competitor (immobilized 1st Ab): IgG1-CD134-IBI101
[10] = molecular target: human OX40 with mouse CRD4 (human with mouse CRD4) (UniProt P43489); assay: flow cytometry, ExpiCHO-S cells with human OX40 carrying mouse CRD4
human OX40 with mouse CRD4 (human with mouse CRD4), sequence (P43489 other isoform, or with tags, fused parts or gaps limits assumed): as the sequence (P43489 29-277) above, with D109N, A122S, H125Q, L127R, Q128H, N132D, S134L, I137V counted along it

[11] = molecular target: human OX40, cell surface-expressed (human) (UniProt P43489); assay: flow cytometry, activated CD4+ T cells, donor 2
[12] = molecular target: human OX40, cell surface-expressed (human) (UniProt P43489); assay: flow cytometry, activated CD8+ T cells, mean of 3 donors
[13] = molecular target: recombinant human OX40 (Acro Biosystems, cat. no. OXO-H5224) (human) (UniProt P43489); assay: BLI cross-block; competitor (immobilized 1st Ab): IgG1-CD134-ABBV368
[14] = molecular target: recombinant cynomolgus monkey OX40 (Acro Biosystems, cat. no. OXO-C5220) (cynomolgus monkey); assay: BLI, Ab on AHC sensor, OX40 analyte
recombinant cynomolgus monkey OX40 (Acro Biosystems, cat. no. OXO-C5220) (cynomolgus monkey), sequence (P43489 other isoform, or with tags, fused parts or gaps limits assumed): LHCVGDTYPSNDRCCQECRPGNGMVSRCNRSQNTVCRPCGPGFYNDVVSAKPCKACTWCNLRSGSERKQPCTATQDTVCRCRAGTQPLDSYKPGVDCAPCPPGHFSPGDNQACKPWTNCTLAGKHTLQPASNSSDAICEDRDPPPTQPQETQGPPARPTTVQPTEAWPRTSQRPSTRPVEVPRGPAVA

[15] = molecular target: recombinant human OX40 (Acro Biosystems, cat. no. OXO-H5224) (human) (UniProt P43489); assay: BLI, Ab on AHC sensor, OX40 analyte
[16] = molecular target: recombinant human OX40 (Acro Biosystems, cat. no. OXO-H5224) (human) (UniProt P43489); assay: BLI cross-block; competitor (immobilized 1st Ab): IgG1-CD134-h3C8
[17] = molecular target: human OX40, cell surface-expressed (human) (UniProt P43489); assay: flow cytometry, activated CD8+ T cells, donor 3
[18] = molecular target: recombinant human OX40 (Acro Biosystems, cat. no. OXO-H5224) (human) (UniProt P43489); assay: BLI cross-block; competitor (immobilized 1st Ab): IgG1-CD134-003-HC6LC2-RR
[19] = molecular target: recombinant human OX40 (Acro Biosystems, cat. no. OXO-H5224) (human) (UniProt P43489); assay: BLI cross-block; competitor (immobilized 1st Ab): IgG1-CD134-11D4
[20] = molecular target: recombinant human OX40 (Acro Biosystems, cat. no. OXO-H5224) (human) (UniProt P43489); assay: BLI cross-block; competitor (immobilized 1st Ab): IgG1-CD134-INCAGN1949
[21] = molecular target: human OX40, cell surface-expressed (human) (UniProt P43489); assay: flow cytometry, activated CD8+ T cells, donor 1
[22] = molecular target: recombinant human OX40 (Acro Biosystems, cat. no. OXO-H5224) (human) (UniProt P43489); assay: BLI cross-block; competitor (immobilized 1st Ab): IgG1-CD134-GBR830
[23] = molecular target: recombinant human OX40 (Acro Biosystems, cat. no. OXO-H5224) (human) (UniProt P43489); assay: BLI cross-block; competitor (immobilized 1st Ab): IgG1-CD134-Hu106
[24] = molecular target: recombinant human OX40 (Acro Biosystems, cat. no. OXO-H5224) (human) (UniProt P43489); assay: BLI cross-block; competitor (immobilized 1st Ab): IgG1-CD134-RG7888
[25] = molecular target: human OX40, cell surface-expressed (human) (UniProt P43489); assay: flow cytometry, activated CD4+ T cells, donor 1
[26] = molecular target: human OX40 with mouse CRD2 (human with mouse CRD2) (UniProt P43489); assay: flow cytometry, ExpiCHO-S cells with human OX40 carrying mouse CRD2
human OX40 with mouse CRD2 (human with mouse CRD2), sequence (P43489 other isoform, or with tags, fused parts or gaps limits assumed): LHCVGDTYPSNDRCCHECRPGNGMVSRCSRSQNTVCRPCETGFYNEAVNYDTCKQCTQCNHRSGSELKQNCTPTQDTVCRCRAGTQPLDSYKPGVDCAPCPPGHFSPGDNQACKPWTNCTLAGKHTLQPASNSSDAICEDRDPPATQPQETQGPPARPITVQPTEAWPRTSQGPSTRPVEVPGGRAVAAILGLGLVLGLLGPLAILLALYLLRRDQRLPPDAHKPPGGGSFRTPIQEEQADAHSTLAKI

[27] = molecular target: human OX40, cell surface-expressed (human) (UniProt P43489); assay: flow cytometry, activated CD4+ T cells, mean of 3 donors
[28] = molecular target: human OX40, cell surface-expressed (human) (UniProt P43489); assay: flow cytometry, ExpiCHO-S cells with human OX40
[29] = molecular target: recombinant human OX40 (Acro Biosystems, cat. no. OXO-H5224) (human) (UniProt P43489); assay: BLI cross-block; competitor (immobilized 1st Ab): IgG1-CD134-49B4-RRE
[30] = molecular target: recombinant human OX40 (Acro Biosystems, cat. no. OXO-H5224) (human) (UniProt P43489); assay: BLI cross-block; competitor (immobilized 1st Ab): IgG1-CD134-A4453
[31] = molecular target: recombinant human OX40 (Acro Biosystems, cat. no. OXO-H5224) (human) (UniProt P43489); assay: BLI cross-block; competitor (immobilized 1st Ab): IgG1-CD134-007
[32] = molecular target: human OX40, cell surface-expressed (human) (UniProt P43489); assay: flow cytometry, activated CD8+ T cells, donor 2
[33] = molecular target: human OX40 with mouse CRD3 (human with mouse CRD3) (UniProt P43489); assay: flow cytometry, ExpiCHO-S cells with human OX40 carrying mouse CRD3
human OX40 with mouse CRD3 (human with mouse CRD3), sequence (P43489 other isoform, or with tags, fused parts or gaps limits assumed): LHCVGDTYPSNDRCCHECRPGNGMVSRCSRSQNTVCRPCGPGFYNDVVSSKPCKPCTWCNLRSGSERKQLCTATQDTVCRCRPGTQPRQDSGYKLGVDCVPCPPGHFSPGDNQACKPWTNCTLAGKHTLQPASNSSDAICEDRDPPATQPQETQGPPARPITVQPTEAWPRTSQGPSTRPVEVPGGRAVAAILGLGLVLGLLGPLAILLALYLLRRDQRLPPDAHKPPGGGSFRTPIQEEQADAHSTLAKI

recombinant human OX40 (Acro Biosystems, cat. no. OXO-H5224) (human), sequence (P43489 29-216 limits assumed): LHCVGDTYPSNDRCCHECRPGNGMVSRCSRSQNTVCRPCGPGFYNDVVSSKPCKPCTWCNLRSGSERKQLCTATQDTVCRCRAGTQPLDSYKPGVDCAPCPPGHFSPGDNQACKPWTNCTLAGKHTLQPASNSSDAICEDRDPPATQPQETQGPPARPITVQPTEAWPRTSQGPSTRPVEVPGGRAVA

| corrected association response [1] | corrected association response [2] | corrected association response [4] | EC50 (read off the curve) [5] | EC50 (read off the curve) [6] | corrected association response [7] | corrected association response [9] | EC50 (read off the curve) [10] | corrected association response [13] | Kd [15] | koff [15] | kon [15] | corrected association response [16] | corrected association response [18] | corrected association response [19] | corrected association response [20] | corrected association response [22] | corrected association response [23] | corrected association response [24] | EC50 (read off the curve) [28] | Binder | further results |
| --- | --- | --- | --- | --- | --- | --- | --- | --- | --- | --- | --- | --- | --- | --- | --- | --- | --- | --- | --- | --- | --- |
| 0.54 nm | 0.02 nm | 0.01 nm | 0.02 µg/mL | 0.05 µg/mL | 0.66 nm | 0.23 nm | 0.01 µg/mL | 0.01 nm | 0.23 nM | 8.4e-05 s⁻¹ | 360000 M⁻¹ s⁻¹ | 0.41 nm | 1.38 nm | 0.11 nm | 0.02 nm | 0.26 nm | 0.1 nm | 0.02 nm | 0.007 µg/mL | IgG1-CD134-RG7888 (antibody, INN chains, looked up, V domains shown, IgG1) VH: EVQLVQSGAEVKKPGASVKVSCKASGYTFTDSYMSWVRQAPGQGLEWIGDMYPDNGDSSYNQKFRERVTITRDTSTSTAYLELSSLRSEDTAVYYCVLAPRWYFSVWGQGTLVTVSS VL: DIQMTQSPSSLSASVGDRVTITCRASQDISNYLNWYQQKPGKAPKLLIYYTSRLRSGVPSRFSGSGSGTDFTLTISSLQPEDFATYYCQQGHTLPPTFGQGTKVEIK | EC50 [3]: 0.0316 µg/mL; EC50 (read off the curve) [8]: 0.05 µg/mL; EC50 [11]: 0.0292 µg/mL; EC50 [12]: 0.0451 µg/mL; Kd [14]: 0.61 nM; koff [14]: 0.00014 s⁻¹; kon [14]: 240000 M⁻¹ s⁻¹; EC50 [17]: 0.0393 µg/mL; EC50 [21]: 0.0627 µg/mL; EC50 [25]: 0.0453 µg/mL; EC50 (read off the curve) [26]: 0.01 µg/mL; EC50 [27]: 0.0354 µg/mL; corrected association response [29]: 0.02 nm; corrected association response [30]: 0.47 nm; corrected association response [31]: 0.47 nm; EC50 [32]: 0.0332 µg/mL |
| 0.82 nm | 0 nm | 0.01 nm | 0.07 µg/mL | 0.06 µg/mL | 1.39 nm | 0.28 nm | 0.06 µg/mL | -0.02 nm | 15 nM | 0.0022 s⁻¹ | 150000 M⁻¹ s⁻¹ | 0.54 nm | 1.73 nm | 0.14 nm | 0 nm | 0.32 nm | 0.69 nm | 0 nm | 0.07 µg/mL | IgG1-CD134-MEDI0562 (antibody, INN chains, looked up, V domains shown, IgG1) VH: QVQLQESGPGLVKPSQTLSLTCAVYGGSFSSGYWNWIRKHPGKGLEYIGYISYNGITYHNPSLKSRITINRDTSKNQYSLQLNSVTPEDTAVYYCARYKYDYDGGHAMDYWGQGTLVTVSS VL: DIQMTQSPSSLSASVGDRVTITCRASQDISNYLNWYQQKPGKAPKLLIYYTSKLHSGVPSRFSGSGSGTDYTLTISSLQPEDFATYYCQQGSALPWTFGQGTKVEIK | EC50 (read off the curve) [8]: 0.1 µg/mL; Kd [14]: 17 nM; koff [14]: 0.0018 s⁻¹; kon [14]: 110000 M⁻¹ s⁻¹; EC50 (read off the curve) [26]: 0.06 µg/mL; corrected association response [29]: 0.15 nm; corrected association response [30]: 0.41 nm; corrected association response [31]: 1.14 nm |
| 0.84 nm | 0.33 nm | 0.19 nm | 0.06 µg/mL | 0.06 µg/mL | 0.97 nm | 0.02 nm | 0.06 µg/mL | -0.01 nm | 67 nM | 0.0077 s⁻¹ | 120000 M⁻¹ s⁻¹ | -0.02 nm | 1.08 nm | 0.13 nm | 0.01 nm | 0.01 nm | 0.02 nm | 0.61 nm | 0.05 µg/mL | IgG1-CD134-GBR830 (antibody, INN chains, looked up, V domains shown, IgG1) VH: QVTLKESGPALVKPTQTLTLTCSFSGFSLSTSGMGVGWIRQPPGKALEWIAHIWWDDDKYYNTALKTRLTISKDTSKNQVVLTMTNMDPVDTATYYCARIDWDGFAYWGQGTLVTVSS VL: EIVLTQSPATLSLSPGERATLSCRASSSVSYMHWYQQKPGQAPRPWIYATSNRATGIPARFSGSGSGTDYTLTISSLEPEDFAVYYCQQWSSNPWTFGQGTKVEIK | EC50 (read off the curve) [33]: 0.06 µg/mL; corrected association response [29]: 0 nm; corrected association response [30]: 0.28 nm; corrected association response [31]: 0.07 nm |
| 0.87 nm | -0.01 nm | 0.04 nm | 0.005 µg/mL | 0.05 µg/mL | 1.27 nm | 0.01 nm | 0.005 µg/mL | -0.04 nm | 32 nM | 0.017 s⁻¹ | 510000 M⁻¹ s⁻¹ | -0.03 nm | 1.68 nm | 0.13 nm | 0.01 nm | 0.01 nm | 0 nm | 0.02 nm | 0.005 µg/mL | IgG1-CD134-ABBV368 (antibody, INN chains, looked up, V domains shown, IgG1) VH: EVQLVESGGGLVQPGGSLRLSCAASGFTFSRYGMSWVRQAPGKGLELVATINSNGGRTYYPDSVKGRFTISRDNAKNSLYLQMNSLRAEDTAVYYCAREGITTAYAMDYWGQGTTVTVSS VL: DIVMTQSPDSLAVSLGERATINCKASQSVDYDGDSYMHWYQQKPGQPPKLLIYAASILESGVPDRFSGSGSGTDFTLTISSLQAEDVAVYYCQQSNEDPRTFGGGTKVEIK | EC50 (read off the curve) [8]: 0.05 µg/mL; Kd [14]: 82 nM; koff [14]: 0.019 s⁻¹; kon [14]: 230000 M⁻¹ s⁻¹; corrected association response [29]: 0 nm; corrected association response [30]: 0.29 nm; corrected association response [31]: 0 nm |
